{"source": "patent US20190381169A1", "about": "“PHARMACEUTICAL COMBINATIONS FOR IMMUNOTHERAPY” (Technische Universitat Dresden, priority 2014, published 2019)", "biological_target": "T1, p75^NTR (Homo sapiens, UniProt P08138)", "T1 sequence (P08138 29-427)": "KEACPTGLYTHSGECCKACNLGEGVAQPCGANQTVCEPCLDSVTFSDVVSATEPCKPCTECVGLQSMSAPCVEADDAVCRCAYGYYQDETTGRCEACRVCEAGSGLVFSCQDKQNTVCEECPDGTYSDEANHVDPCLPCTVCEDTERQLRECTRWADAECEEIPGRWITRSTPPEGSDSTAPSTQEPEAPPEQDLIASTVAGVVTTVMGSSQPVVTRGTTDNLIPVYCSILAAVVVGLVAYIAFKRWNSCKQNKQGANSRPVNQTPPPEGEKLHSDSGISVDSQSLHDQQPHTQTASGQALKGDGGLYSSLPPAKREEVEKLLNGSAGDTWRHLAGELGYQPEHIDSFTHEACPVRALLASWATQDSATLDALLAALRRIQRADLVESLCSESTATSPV", "experiment": "Antigen mediated proliferation and cytokine secretion of CD4+ T-cells co-cultured with autologous PDC of allergic donors", "type": "cell-based", "set-up": "nerve growth factor receptor p75^NTR, which is expressed by human and murine plasmacytoid dendritic cells (PDC); endogenous in cells; host or cells: primary human plasmacytoid dendritic cells (BDCA-4+ selection) from buffy coats or from peripheral blood of allergic donors", "method": "CD4^+ T helper cells and PDC used in antigen mediated autologous CD4^+ T-cell proliferation assays were purified from peripheral blood (80 ml) obtained from specified donors who are known to have allergy against certain allergens. Peripheral blood was drawn in tubes containing Li-Heparin as anti-coagulant (S-Monovette Li-Heparin 7.5 ml, Sarstedt). CD4^+ T helper cells were purified from peripheral blood mononuclear cells by negative selection using CD4^+ T-cell isolation kit II (Miltenyi Biotec), as per manufacturer's instructions with slight modifications. Briefly, the cell pellet was re-suspended in 50 μl PBS E/B. Then 12 μl of Biotin-labelled antibody cocktail per 10^7 total cells were added and the cell suspension was incubated at 4° C. for 15 minutes. 50 μl of PBS E/B was added followed by addition of 25 μl of anti-biotin microbeads per 10^7 total cells. Cells were incubated at 4° C. for another 20 minutes, followed by washing with 10 ml PBS E/B and centrifugation (470 g for 6 minutes). […] The purity of isolated CD4^+ T helper cells was over 95% as assessed by flow cytometric analysis after co-staining with monoclonal mouse anti human CD3-PE (BD Biosciences) and monoclonal mouse anti human CD4-FITC (BD Biosciences). […]\nPurified CD4^+ T helper cells (see above) were washed once with PBS. […] Cell number was determined.\nAntigen mediated CD4^+ T helper cell proliferation responses were assayed using purified and CFSE labelled CD4^+ T helper cells in co-culture with purified PDC/BDAC4^+ cells. […] After 5 days of co-culture, supernatant was analyzed for Th1/Th2 cytokines by using BD cytokine bead array (CBA) Human Th1/Th2 cytokine kit (BD Biosciences) and percentages of proliferating CFSE-low CD4^+ T-cells were analyzed by flow cytometry.\nThe concentrations of IL-2, IL-4, IL-5, IL-10, IFNγ and TNFα in the supernatant were determined by using the CBA kit following manufacturer's instruction with modification in data analysis using Microsoft Excel. […]", "note": "Entries after “also recorded” stand apart in the source; their conditions may differ."}
{"substance": "NGF: Nerve growth factor, best characterized neurotrophin; natural p75^NTR agonist (R&D Systems)", "values": [{"measurement": "secretion of IL-2 and IL-5", "setting": "CD4+ T-cell/PDC co-culture with allergen, NGF vs without NGF", "result": "dose-dependent increased secretion; also recorded: increasing secretion"}, {"measurement": "antigen (allergen) mediated CD4+ T-cells proliferation (CFSE)", "setting": "co-culture with autologous PDC plus specific allergen, NGF (25 ng/ml elsewhere in the source) vs without NGF, 5 days", "result": "significantly increased; also recorded: increased proliferation"}, {"measurement": "proliferation of T-cells on its own (without PDC co-culture)", "setting": "with or without antigen plus minus NGF or with NGF alone", "result": "did not show any proliferation"}]}
